This note sets out measurements from patent publication US20240342199.

The target in series [1] is Recombinant CypD Ser123→Ala mutant (UniProt P30405).
For series [2], the target named is Recombinant GST-CypD (wild type) (UniProt P30405).
Sequence of Recombinant GST-CypD (wild type) (P30405 whole entry): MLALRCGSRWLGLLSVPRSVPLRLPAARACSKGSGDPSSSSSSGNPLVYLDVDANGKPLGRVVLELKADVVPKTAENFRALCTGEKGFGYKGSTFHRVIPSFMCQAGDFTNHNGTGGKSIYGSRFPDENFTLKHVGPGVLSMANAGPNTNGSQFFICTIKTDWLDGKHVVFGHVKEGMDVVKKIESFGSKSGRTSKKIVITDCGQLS

Sequence of Recombinant CypD Ser123→Ala mutant (P30405 whole entry, looked up, change not shown): as the sequence (P30405 whole entry) above

For the substance active Akt1, the “kinase assay with recombinant proteins, autoradiography” value in series [1] and in series [2] was “readily phosphorylated” each time.
